This assay addresses SARS-CoV-2 RBD-hFc蛋白 (SARS-CoV-2 RBD fused to a human Fc tag) (SARS-CoV-2; human).

B1: S43纳米抗体 (alpaca-derived nanobody S43, with C-terminal 6xHis tag) (VHH)
VHH: QVQLQESGGGLVQPGGSLRLTCAPSGFTLDYYAIGWFRQAPGKEREGVSCISSNNSTYYADSVKGRFTISRDNAKNTVYLQMNSLKPEDTAVYYCAAEPDYSGVYYYTCGWTDFGSWGQGTQVTVSS
B1 came in with a Kd of 0.12 nM.

(Values after patent CN114891097A (INST MICROBIOLOGY CAS, dated 2022).)
